Experimental data: PMC5309799

Tests used:
[1] = target: RH5Nt (F1-K116), biotinylated SPR ligand (P. falciparum (3D7 strain)); assay: SPR
[2] = target: Synthetic RH5Nt peptide (F1-K116 with an additional C-terminal cysteine) (P. falciparum); assay: SPR
Basigin (Homo sapiens) = Basigin (Homo sapiens) (UniProt P35613); conditions: cited from earlier work
[3] = target: Basigin ectodomain, AVEXIS bait or prey and biotinylated SPR ligand (human) (UniProt P35613); assay: SPR
[4] = target: P113 Y1-K197, biotinylated SPR ligand (P. falciparum (3D7 strain)); assay: SPR
[5] = target: P113 Y1-N653, biotinylated SPR ligand (P. falciparum (3D7 strain)); assay: SPR
[6] = target: P113 entire ectodomain, AVEXIS bait or prey and biotinylated SPR ligand (P. falciparum (3D7 strain)); assay: SPR
[7] = target: purified P113 entire ectodomain (P113 EE) (P. falciparum (3D7 strain)); assay: native gel or EMSA; fractions of the gel filtration peak resolved by native PAGE (Bis-Tris, 150 V) against denaturing SDS-PAGE
[8] = target: P113 entire ectodomain, AVEXIS bait and prey forms (P. falciparum (3D7 strain)); assay: SPR

Question: With “P113 Y1-N653, purified SPR analyte (domain or fragment)” as the substance, how does the Kd [1] read?
Answer: Its Kd is 5000 nM.

Question: What about the koff [1] of the same substance?
Answer: The koff was 1.54 s⁻¹.

Question: What about the kon [1] of the same substance?
Answer: Its kon is 304000 M⁻¹ s⁻¹.

Question: And the Kd [2]?
Answer: Its Kd is 5700 nM.

Question: And the koff [2]?
Answer: Its koff is 1.24 s⁻¹.

Question: What about the kon [2] of the same substance?
Answer: Its kon is 216000 M⁻¹ s⁻¹.

Question: Which Kd (Basigin (Homo sapiens)) does the source give for RH5 (from UniProt Q8IFM5) here?
Answer: The Kd was 1000 nM.

Question: Which Kd [3] does the source give for “RH5Ct (major processed form of RH5), purified monomeric SPR analyte (domain or fragment)” here?
Answer: The Kd was 900 nM.

Question: And the koff [3]?
Answer: Its koff is 0.293 s⁻¹.

Question: What about the kon [3] of the same substance?
Answer: Its kon is 342000 M⁻¹ s⁻¹.

Question: Which Kd [3] does the source give for “RH5FL, purified monomeric SPR analyte (from UniProt Q8IFM5 25-526) (natural protein)” here?
Answer: Its Kd is 1300 nM.

Question: What about the Kd [4] of the same substance?
Answer: Its Kd is 1100 nM.

Question: And the Kd [5]?
Answer: Its Kd is 500 nM.

Question: Which Kd [6] does the source give for “RH5Nt (N-terminal region of RH5, F1-K116), purified monomeric SPR analyte (domain or fragment)” here?
Answer: The Kd was 2700 nM.

Question: And the koff [6]?
Answer: Its koff is 0.793 s⁻¹.

Question: What about the kon [6] of the same substance?
Answer: Its kon is 300000 M⁻¹ s⁻¹.

Question: For “purified P113 entire ectodomain (P113 EE) (natural protein)”, which stoichiometry N [7] is on record?
Answer: Its stoichiometry N is 4.

Question: Which Kd [8] does the source give for “purified monomeric RH5Nt (F1-K116) (domain or fragment)” here?
Answer: Its Kd is 3000 nM.

Question: With “purified monomeric full-length RH5 (RH5FL) (from UniProt Q8IFM5 25-526) (natural protein)” as the substance, how does the Kd [8] read?
Answer: Its Kd is 300 nM.
